According to patent US20200023070A1, “CONJUGATES COMPRISING AN GLP-1/GLUCAGON/GIP TRIPLE RECEPTOR AGONIST, A LINKER AND HYALURONIC ACID” (SANOFI, priority 2018, published 2020):
Starred links: 1 amine or outer side, 2 acyl side, 3 side chain; linkers in the order of their positions; H or OH if unused. Non-standard residues stand in square brackets, D forms with d. Groups on a side chain read outwards from the residue. No end group written: not given here. *: point of attachment. γGlu = O=C(O)[C@H](CCC(=O)[*:2])N[*:1]; Palmitoyl = CCCCCCCCCCCCCCCC(=O)*; Aib = CC(C)(N)C(=O)O

T1: human GIP receptor (human, UniProt P48546 22-466)
T1 sequence (looked up): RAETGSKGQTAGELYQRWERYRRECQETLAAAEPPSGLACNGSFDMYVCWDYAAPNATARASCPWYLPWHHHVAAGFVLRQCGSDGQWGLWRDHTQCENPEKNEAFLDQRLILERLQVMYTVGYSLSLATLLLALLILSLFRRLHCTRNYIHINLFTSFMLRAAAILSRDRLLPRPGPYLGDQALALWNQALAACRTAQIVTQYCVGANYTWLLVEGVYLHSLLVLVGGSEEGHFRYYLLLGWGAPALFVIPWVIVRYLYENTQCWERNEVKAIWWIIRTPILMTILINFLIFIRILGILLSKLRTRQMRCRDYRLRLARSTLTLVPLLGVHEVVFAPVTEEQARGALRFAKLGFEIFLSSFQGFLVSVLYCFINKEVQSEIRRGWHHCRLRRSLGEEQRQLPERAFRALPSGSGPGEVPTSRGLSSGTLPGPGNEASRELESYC


Key:
[1] = Injectability study (load on pre-filled syringe); format: physicochemical; settings: 20 mg/mL suspension, 13.5% peptide load, 1 mL BD Neopak PFS, needle 27G×½″ TW, 3.2 mm/s
Description: A suspension of HA-peptide conjugate with Seq. ID No. 7 (20 mg/mL in 20 mM acetate buffer, 7.6 mg/mL NaCl, 4 mg/mL soluble (non crosslinked) hyaluronic acid 700 kD, pH 4.8) was manually filled into 1 mL long BD Neopak glass pre-filled syringes (PFS), 600 μL each, and afterwards closed via vacuum stoppering. The filled PFS were loaded into the syringe holder of the equipment and the injection speed was adjusted to […] which equals 3.2 mm/s for the BD Neopak PFS.

[2] = Pharmacokinetics in female Göttingen minipigs; format: in vivo; settings: for half-life in plasma: after subcutaneous administration
Description: 6 female Göttingen minipigs of average 30000 g weight were used in this study.
Animals had access to food and water ad libitum throughout the entire study period. The animals were dosed with 0.23 mg/kg of a 17.6% suspension of HA-Aib-linker-Seq ID. No.7. Plasma samples were taken at 0, 1, 4, 8, 24, 48, 72, 96, 144, 192, 264, 312, 360, 432, 480 and 528 h. Samples were analysed for the peptide. All quantitative results were determined by LC-MS/MS. For calculation of mean concentrations, values below the lower limit of quantification (LLOQ=0.5 ng/mL in plasma) were set to zero. The pharmacokinetic parameters were calculated by the program WinNonlin 6.4 using a non-compartmental model and linear trapezoidal interpolation calculation.

[3] = test system: female diet-induced obese (DIO) C57BL/6N mice; experiment: Body mass after subcutaneous treatment in female diet-induced obese mice; format: in vivo, mouse; settings: for mean body weight reduction by day 23 versus the body weight at day 0: days 1, 8, 15, 22, female DIO mice
Description: Female C57BL/6N Cr1 mice were used for this study.
Mice were group housed under vivarium conditions that included a 12 h light/dark cycle, room temperatures—of 23±1° C. and a relative humidity between 30-70%. All animals had free access to water and diet (Ssniff adjusted high fat diet: TD.97366) for 18 weeks prior to pharmacological intervention (dosing phase). After pre-feeding period, mice were stratified for body weight to treatment groups with n=8, so that each group has similar mean body weight. At the study start mice were between 25-26 weeks old.
Mice were treated in the morning on days 1, 8, 15 and 22 between 8:00 and 9:00 AM with a s.c. injection of cross-linked hyaluronic acid (“vehicle”) or 100 and 200 nmol/kg/week conjugate (based on peptide content) of SEQ ID NO: 7 using a 30 G needle.
Body weight and food consumption were measured daily throughout the dosing phase. The study was terminated on day 23.
For statistical analyses a One-Way Analysis of Variance (ANOVA) was performed with SigmaStat 3.5. The power of the performed test was alpha=0.050:0.999 and a comparison versus the high fat diet-Vehicle group was performed with Dunnett's Method.

[4] = Pharmacokinetics in female SD rats; format: in vivo, Sprague-Dawley rats
Description: 5 female Sprague-Dawley rats were used in this study. Animals had access to food and water ad libitum throughout the entire study period. The animals were dosed with 1.01 mg/kg (peptide content) of a suspension of the conjugate of Seq ID. No.7. Plasma samples were taken at 4, 24, 48, 72, 144, 192, 240 and 336 h. Samples were analysed for the peptide. All quantitative results were determined by LC-MS/MS. For calculation of mean concentrations, values below the lower limit of quantification (LLOQ=2.5 ng/mL in plasma) were set to zero. The pharmacokinetic parameters were calculated by the program WinNonlin 6.4 using a non-compartmental model and linear trapezoidal interpolation calculation.

[5] = molecular target: human glucagon receptor (human, UniProt P47871 26-477); experiment: cell-based or functional assay
[6] = molecular target: T1, human GIP receptor; experiment: cell-based or functional assay
[7] = molecular target: human GLP-1 receptor (human, UniProt P43220 24-463); experiment: cell-based or functional assay
[8] = peptide Seq. NO: 7 in plasma, single s.c. 0.23 mg/kg of 17.6% conjugate (0.04 mg/kg peptide)
[9] = peptide Seq. No. 7 in plasma, single s.c. 1.01 mg/kg (peptide content) conjugate suspension

Chain of human glucagon receptor (P47871 26-477): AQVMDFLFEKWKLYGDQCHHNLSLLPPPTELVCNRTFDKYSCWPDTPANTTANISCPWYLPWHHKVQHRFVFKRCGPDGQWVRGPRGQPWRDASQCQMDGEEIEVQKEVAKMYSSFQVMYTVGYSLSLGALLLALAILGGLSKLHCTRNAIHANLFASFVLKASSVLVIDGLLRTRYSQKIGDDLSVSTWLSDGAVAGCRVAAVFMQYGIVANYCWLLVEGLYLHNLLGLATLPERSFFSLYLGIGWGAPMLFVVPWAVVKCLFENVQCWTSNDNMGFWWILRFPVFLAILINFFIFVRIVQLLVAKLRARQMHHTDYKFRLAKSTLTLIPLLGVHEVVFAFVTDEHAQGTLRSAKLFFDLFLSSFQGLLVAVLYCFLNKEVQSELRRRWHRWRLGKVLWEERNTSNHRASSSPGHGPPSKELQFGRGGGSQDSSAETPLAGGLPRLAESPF

Molecule | average load [1] | maximum load [1] | half-life in plasma [2] | half-life in plasma ([2]; same value as in h) | AUClast [2, 8] | Cmax [2, 8] | tlast [2, 8] | tmax [2, 8] | mean body weight reduction by day 23 versus the body weight at day 0 ([3]; 100 nmol/kg/w s.c. (based on peptide content)) | mean body weight reduction by day 23 versus the body weight at day 0 ([3]; 200 nmol/kg/w s.c. (based on peptide content)) | body weight effect of the first administration ([3]; both doses (100 and 200 nmol/kg/week s.c.), p<0.05 vs high-fat diet vehicle) | half-life in plasma ([4]; after subcutaneous administration, 1.01 mg/kg (peptide content)) | AUClast [4, 9] | Cmax [4, 9] | tlast [4, 9] | tmax [4, 9] | EC50 hGlucagon R (cAMP response, HTRF, HEK-293 cells) [5] | EC50 hGlP R (cAMP response, HTRF, HEK-293 cells) [6] | EC50 hGLP-1R (cAMP response, HTRF, HEK-293 cells) [7]
conjugate of SEQ ID NO: 7: Divinylsulfone-crosslinked hyaluronic acid hydrogel carrying peptide Seq. ID No. 7 via Aib-linker (thiol-maleimide conjugation) (H[Aib]HGTFTSDLSKLK([γGlu-γGlu-Palmitoyl])EEQRQ[Aib]EFIEWLKA[dA]GPPS[Aib]KPPPK-NH2; also: conjugated to divinylsulfone-crosslinked hyaluronic acid hydrogel via Aib-linker (thiol-maleimide), site not given here) | 6.5 N | 7.6 N | around 139 h | 139 h | 897 ng·h/mL | 4.96 ng/mL | 344 h | 100 h | ~17.7±1.3% | ~19.5±1.4% | significant body weight-reducing effect that lasted until day 8 | around 3 days | 1810 ng·h/mL | 14.0 ng/mL | 221 h | 48.0 h |  |  | 
H[Aib]HGTFTSDLSKLK([γGlu-γGlu-Palmitoyl])EEQRQ[Aib]EFIEWLKA[dA]GPPS[Aib]KPPPK-NH2 (N-terminus assumed; SMILES CCCCCCCCCCCCCCCC(=O)N[C@@H](CCC(=O)N[C@@H](CCC(=O)NCCCC[C@H](NC(=O)[C@H](CC(C)C)NC(=O)[C@H](CCCCN)NC(=O)[C@H](CO)NC(=O)[C@H](CC(C)C)NC(=O)[C@H](CC(=O)O)NC(=O)[C@H](CO)NC(=O)[C@@H](NC(=O)[C@H](Cc1ccccc1)NC(=O)[C@@H](NC(=O)CNC(=O)[C@H](Cc1c[nH]cn1)NC(=O)C(C)(C)NC(=O)[C@@H](N)Cc1c[nH]cn1)[C@@H](C)O)[C@@H](C)O)C(=O)N[C@@H](CCC(=O)O)C(=O)N[C@@H](CCC(=O)O)C(=O)N[C@@H](CCC(N)=O)C(=O)N[C@@H](CCCNC(=N)N)C(=O)N[C@@H](CCC(N)=O)C(=O)NC(C)(C)C(=O)N[C@@H](CCC(=O)O)C(=O)N[C@@H](Cc1ccccc1)C(=O)N[C@H](C(=O)N[C@@H](CCC(=O)O)C(=O)N[C@@H](Cc1c[nH]c2ccccc12)C(=O)N[C@@H](CC(C)C)C(=O)N[C@@H](CCCCN)C(=O)N[C@@H](C)C(=O)N[C@H](C)C(=O)NCC(=O)N1CCC[C@H]1C(=O)N1CCC[C@H]1C(=O)N[C@@H](CO)C(=O)NC(C)(C)C(=O)N[C@@H](CCCCN)C(=O)N1CCC[C@H]1C(=O)N1CCC[C@H]1C(=O)N1CCC[C@H]1C(=O)N[C@@H](CCCCN)C(N)=O)[C@@H](C)CC)C(=O)O)C(=O)O) [Peptide of SEQ ID NO: 7 (GLP-1/Glucagon/GIP triple receptor agonist, exendin-4 derivative)] |  |  |  |  |  |  |  |  |  |  |  |  |  |  |  |  | 2.1 pM | 1.5 pM | 2.9 pM
H[Aib]HGTFTSDLSKLK([γGlu-γGlu-Palmitoyl])EEQRQKEFIEWLKAGGHPS[Aib]KPPPK-NH2 (N-terminus assumed; SMILES CCCCCCCCCCCCCCCC(=O)N[C@@H](CCC(=O)N[C@@H](CCC(=O)NCCCC[C@H](NC(=O)[C@H](CC(C)C)NC(=O)[C@H](CCCCN)NC(=O)[C@H](CO)NC(=O)[C@H](CC(C)C)NC(=O)[C@H](CC(=O)O)NC(=O)[C@H](CO)NC(=O)[C@@H](NC(=O)[C@H](Cc1ccccc1)NC(=O)[C@@H](NC(=O)CNC(=O)[C@H](Cc1c[nH]cn1)NC(=O)C(C)(C)NC(=O)[C@@H](N)Cc1c[nH]cn1)[C@@H](C)O)[C@@H](C)O)C(=O)N[C@@H](CCC(=O)O)C(=O)N[C@@H](CCC(=O)O)C(=O)N[C@@H](CCC(N)=O)C(=O)N[C@@H](CCCNC(=N)N)C(=O)N[C@@H](CCC(N)=O)C(=O)N[C@@H](CCCCN)C(=O)N[C@@H](CCC(=O)O)C(=O)N[C@@H](Cc1ccccc1)C(=O)N[C@H](C(=O)N[C@@H](CCC(=O)O)C(=O)N[C@@H](Cc1c[nH]c2ccccc12)C(=O)N[C@@H](CC(C)C)C(=O)N[C@@H](CCCCN)C(=O)N[C@@H](C)C(=O)NCC(=O)NCC(=O)N[C@@H](Cc1c[nH]cn1)C(=O)N1CCC[C@H]1C(=O)N[C@@H](CO)C(=O)NC(C)(C)C(=O)N[C@@H](CCCCN)C(=O)N1CCC[C@H]1C(=O)N1CCC[C@H]1C(=O)N1CCC[C@H]1C(=O)N[C@@H](CCCCN)C(N)=O)[C@@H](C)CC)C(=O)O)C(=O)O) [Peptide of SEQ ID NO: 6 (GLP-1/Glucagon/GIP triple receptor agonist, exendin-4 derivative)] |  |  |  |  |  |  |  |  |  |  |  |  |  |  |  |  | 2.3 pM | 2.1 pM | 1.4 pM
